Laboratory results reported in PMC12309418 (2025).

How the values were obtained:
[1] = biological target: T1, PLS2 RD-ABD1 (a.a. 1–385) (human, UniProt P13796 1-385); assay: FP; pH 7.0
T1 chain: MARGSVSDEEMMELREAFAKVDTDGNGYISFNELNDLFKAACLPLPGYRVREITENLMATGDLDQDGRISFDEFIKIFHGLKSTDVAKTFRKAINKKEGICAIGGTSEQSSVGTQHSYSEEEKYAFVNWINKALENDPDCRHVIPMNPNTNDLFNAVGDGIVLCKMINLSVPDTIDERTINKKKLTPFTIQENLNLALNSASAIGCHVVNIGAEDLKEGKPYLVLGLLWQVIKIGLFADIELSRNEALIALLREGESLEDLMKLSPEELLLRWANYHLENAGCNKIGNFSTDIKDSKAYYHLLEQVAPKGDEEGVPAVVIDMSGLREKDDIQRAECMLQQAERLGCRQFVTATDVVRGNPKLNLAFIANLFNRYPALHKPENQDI

[2] = biological target: T1, PLS2 RD-ABD1 (a.a. 1–385); assay: FP; pH 8.0

B1: fluorescein-maleimide labeled PLS2 ABD2 (FM-ABD2) (domain or fragment)
chain: PENQDIDWGALEGETREERTFRNWMNSLGVNPRVNHLYSDLSDALVIFQLYEKIKVPVDWNRVNKPPYPKLGGNMKKLENCNYAVELGKNQAKFSLVGIGGQDLNEGNRTLTLALIWQLMRRYTLNILEEIGGGQKVNDDIIVNWVNETLREAKKSSSISSFKDPKISTSLPVLDLIDAIQPGSINYDLLKTENLNDDEKLNNAKYAISMARKIGARVYALPEDLVEVNPKMVMTVFACLMGKGM
modifications: fluorescein maleimide (FM) label; labeled residue not stated
[1]
  Kd: 4.5 nM
[2]
  Kd: 8.7 nM
